We go through 125 sequences from the supplement of paper PMC9112550, “Optimization of the antimicrobial peptide Bac7 by deep mutational scanning” (BMC Biology, 2022).

This data set relates to Escherichia coli TOP10. The data set can be described thus: shrunken log2 fold change of peptide-encoding DNA abundance (4.5 h post-induction vs induction); higher = less antimicrobial activity (less host growth inhibition). Particulars: time post-induction: 4.5 h; library: site-saturation at positions 5, 18, 19, 20.
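Note: peptides expressed intracellularly from a pBAD plasmid library in pooled LB shake-flask culture, induced with 0.3% L-arabinose, DNA abundance read by NGS, three biological replicates, DESeq2 with apeglm shrinkage.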

RRIRVRPPRLPRPRPRPSLYPRP: the “shrunken log2 fold change” value is -0.62.
RRIRRRPPRLPRPRPRPQRAPRP: the “shrunken log2 fold change” value came out at 0.226.
The figure for RRIRKRPPRLPRPRPRPNHFPRP is -2.08; for RRIRARPPRLPRPRPRPGFYPRP it is 0.0241; for RRIRWRPPRLPRPRPRPRKFPRP it is 0.295.
In the case of RRIRARPPRLPRPRPRPGDCPRP, the “shrunken log2 fold change” value stood at 0.366.
Next, RRIRYRPPRLPRPRPRPYMKPRP: -0.122; RRIRIRPPRLPRPRPRPVYCPRP: -0.127.
The figure for RRIRNRPPRLPRPRPRPALYPRP is -0.125; for RRIRIRPPRLPRPRPRPTDNPRP it is -0.964; for RRIRSRPPRLPRPRPRPVMIPRP it is -0.0753.
Take RRIRGRPPRLPRPRPRPGPPPRP: the “shrunken log2 fold change” value stood at 0.97.
The figure for RRIRQRPPRLPRPRPRPFVQPRP is -0.0936.
The figure for RRIRRRPPRLPRPRPRPCDSPRP is -0.396; for RRIRLRPPRLPRPRPRPAFGPRP it is 0.359.
Next, RRIRWRPPRLPRPRPRPQRVPRP: 2.3; RRIRCRPPRLPRPRPRPCVTPRP: 0.0974.
Regarding RRIRARPPRLPRPRPRPCIFPRP, the “shrunken log2 fold change” value was found to be 0.131.
The figure for RRIRQRPPRLPRPRPRPQECPRP is -0.00962.
The figure for RRIRVRPPRLPRPRPRPVMPPRP is -0.0577.
In the case of RRIRWRPPRLPRPRPRPMEPPRP, the “shrunken log2 fold change” value was 0.0539.
For the sequence RRIRRRPPRLPRPRPRPSHIPRP, the “shrunken log2 fold change” value is -0.0708.
The figure for RRIRDRPPRLPRPRPRPNFWPRP is 0.375; for RRIRIRPPRLPRPRPRPNPGPRP it is -0.209.
The figure for RRIRFRPPRLPRPRPRPKKYPRP is -0.242.
The figure for RRIRERPPRLPRPRPRPSRPPRP is 0.168.
Turning to RRIRDRPPRLPRPRPRPFGDPRP, the “shrunken log2 fold change” value was -0.0062.
The figure for RRIRQRPPRLPRPRPRPMRYPRP is 0.0851.
Next, RRIRKRPPRLPRPRPRPPWMPRP: 0.48; RRIRARPPRLPRPRPRPHFCPRP: -0.105.
The figure for RRIRMRPPRLPRPRPRPWFIPRP is -0.183; for RRIRYRPPRLPRPRPRPCLVPRP it is -0.0874.
As for RRIRVRPPRLPRPRPRPGKNPRP, the “shrunken log2 fold change” value was -0.22.
With RRIRLRPPRLPRPRPRPCKQPRP, the “shrunken log2 fold change” value was found to be 0.0377.
The figure for RRIRYRPPRLPRPRPRPFMNPRP is -0.0199.
The figure for RRIRERPPRLPRPRPRPNIWPRP is -0.0737; for RRIRNRPPRLPRPRPRPHPMPRP it is 0.0281; for RRIRGRPPRLPRPRPRPTFDPRP it is 0.548.
The figure for RRIRLRPPRLPRPRPRPHILPRP is -0.0127.
For the sequence RRIRARPPRLPRPRPRPDKQPRP, the “shrunken log2 fold change” value is -0.0794.
Next, RRIRQRPPRLPRPRPRPDNEPRP: -0.359; RRIRDRPPRLPRPRPRPFGLPRP: -0.259; RRIRHRPPRLPRPRPRPSDVPRP: -0.042.
For RRIRQRPPRLPRPRPRPFVGPRP, the “shrunken log2 fold change” value is -0.237.
Next, RRIRERPPRLPRPRPRPSEQPRP: -0.0297.
On to RRIRKRPPRLPRPRPRPKIWPRP, for which the “shrunken log2 fold change” value was determined as 0.475.
Next, RRIRYRPPRLPRPRPRPTQNPRP: 0.298; RRIRTRPPRLPRPRPRPDILPRP: 0.109; RRIRWRPPRLPRPRPRPCTNPRP: -0.0757.
Next, RRIRCRPPRLPRPRPRPAFNPRP: -0.23; RRIRRRPPRLPRPRPRPPCMPRP: 0.404.
Take RRIRRRPPRLPRPRPRPHPCPRP: the “shrunken log2 fold change” value is 0.0156.
Regarding RRIRHRPPRLPRPRPRPWISPRP, the “shrunken log2 fold change” value was -0.0102.
Next, RRIRSRPPRLPRPRPRPDRTPRP: -0.256.
Next, RRIRDRPPRLPRPRPRPKQMPRP: 0.113.
Turning to RRIRWRPPRLPRPRPRPWWPPRP, the “shrunken log2 fold change” value was 0.19.
Consider RRIRRRPPRLPRPRPRPMLVPRP, for which the “shrunken log2 fold change” value stood at 0.196.
Next, RRIRGRPPRLPRPRPRPYPSPRP: -0.111; RRIRNRPPRLPRPRPRPCISPRP: -0.802; RRIRRRPPRLPRPRPRPHQPPRP: 0.557.
Regarding RRIRCRPPRLPRPRPRPFMKPRP, the “shrunken log2 fold change” value was -0.696.
The figure for RRIRNRPPRLPRPRPRPYYAPRP is -0.0919; for RRIRVRPPRLPRPRPRPVRQPRP it is -0.0557; for RRIRGRPPRLPRPRPRPLSMPRP it is 1.34.
In the case of RRIRKRPPRLPRPRPRPWNIPRP, the “shrunken log2 fold change” value is -0.275.
The figure for RRIRMRPPRLPRPRPRPEPNPRP is 2.18.
RRIRYRPPRLPRPRPRPSCLPRP: the “shrunken log2 fold change” value is -0.56.
RRIRFRPPRLPRPRPRPVKNPRP: the “shrunken log2 fold change” value was -0.0401.
For RRIRCRPPRLPRPRPRPERDPRP, the “shrunken log2 fold change” value stood at 0.325.
Next, RRIRFRPPRLPRPRPRPRYIPRP: -0.392; RRIRMRPPRLPRPRPRPIDWPRP: 0.483; RRIRMRPPRLPRPRPRPRHCPRP: 0.28.
In the case of RRIRRRPPRLPRPRPRPPSWPRP, the “shrunken log2 fold change” value came out at 0.295.
The figure for RRIRYRPPRLPRPRPRPVTRPRP is -0.129; for RRIRKRPPRLPRPRPRPKMFPRP it is -0.146.
The figure for RRIRLRPPRLPRPRPRPTVYPRP is -0.146; for RRIRYRPPRLPRPRPRPRWVPRP it is -0.0064.
For the sequence RRIRKRPPRLPRPRPRPMGGPRP, the “shrunken log2 fold change” value was 0.0559.
The figure for RRIRMRPPRLPRPRPRPHGAPRP is 0.0098; for RRIRYRPPRLPRPRPRPNRNPRP it is -1.
Take RRIRTRPPRLPRPRPRPKTIPRP: the “shrunken log2 fold change” value was -0.292.
In the case of RRIRYRPPRLPRPRPRPQAFPRP, the “shrunken log2 fold change” value was -0.142.
RRIRDRPPRLPRPRPRPMGGPRP: the “shrunken log2 fold change” value was 0.0169.
For the sequence RRIRQRPPRLPRPRPRPRHMPRP, the “shrunken log2 fold change” value is -0.316.
Next, RRIRYRPPRLPRPRPRPMEDPRP: -0.0944; RRIRDRPPRLPRPRPRPQMRPRP: -0.0122; RRIRSRPPRLPRPRPRPEIVPRP: 0.412.
On to RRIRFRPPRLPRPRPRPSKQPRP, for which the “shrunken log2 fold change” value was -0.101.
RRIRSRPPRLPRPRPRPTRRPRP: the “shrunken log2 fold change” value turned out to be 0.109.
With RRIRNRPPRLPRPRPRPCYLPRP, the “shrunken log2 fold change” value was -1.19.
The figure for RRIRSRPPRLPRPRPRPFVCPRP is -0.326; for RRIRCRPPRLPRPRPRPFVSPRP it is -0.265; for RRIRHRPPRLPRPRPRPRNAPRP it is 0.184.
On to RRIRKRPPRLPRPRPRPKNPPRP, for which the “shrunken log2 fold change” value is 0.0739.
As to RRIRTRPPRLPRPRPRPIWGPRP, the “shrunken log2 fold change” value is -0.144.
Consider RRIRKRPPRLPRPRPRPPLTPRP, for which the “shrunken log2 fold change” value worked out at 0.542.
On to RRIRGRPPRLPRPRPRPQRMPRP, for which the “shrunken log2 fold change” value turned out to be 0.307.
With RRIRERPPRLPRPRPRPLNMPRP, the “shrunken log2 fold change” value is -0.528.
For the sequence RRIRQRPPRLPRPRPRPQDDPRP, the “shrunken log2 fold change” value was -0.0165.
The figure for RRIRSRPPRLPRPRPRPEGTPRP is 0.123; for RRIRDRPPRLPRPRPRPRAWPRP it is 0.0227; for RRIRKRPPRLPRPRPRPPSKPRP it is 0.541.
Take RRIRPRPPRLPRPRPRPEPQPRP: the “shrunken log2 fold change” value amounted to 0.268.
Next, RRIRPRPPRLPRPRPRPKRQPRP: 0.0603; RRIRIRPPRLPRPRPRPDTQPRP: -0.167.
Regarding RRIRTRPPRLPRPRPRPTQPPRP, the “shrunken log2 fold change” value is 0.176.
Consider RRIRKRPPRLPRPRPRPFCRPRP, for which the “shrunken log2 fold change” value came to 0.558.
On to RRIRGRPPRLPRPRPRPDFEPRP, for which the “shrunken log2 fold change” value turned out to be 0.988.
As to RRIRPRPPRLPRPRPRPEGWPRP, the “shrunken log2 fold change” value is 1.82.
For the sequence RRIRRRPPRLPRPRPRPESSPRP, the “shrunken log2 fold change” value is 0.53.
With RRIRKRPPRLPRPRPRPKWSPRP, the “shrunken log2 fold change” value came to 0.506.
The figure for RRIRLRPPRLPRPRPRPDWGPRP is 0.222; for RRIRIRPPRLPRPRPRPHVVPRP it is -0.0217; for RRIRARPPRLPRPRPRPYERPRP it is 0.0697.
Next, RRIRRRPPRLPRPRPRPPKAPRP: -0.00754.
As for RRIRYRPPRLPRPRPRPQDNPRP, the “shrunken log2 fold change” value was -0.024.
Next, RRIRIRPPRLPRPRPRPEVPPRP: -0.0152; RRIRDRPPRLPRPRPRPMPNPRP: -0.258; RRIRQRPPRLPRPRPRPKHMPRP: -0.237.
The figure for RRIRARPPRLPRPRPRPQGDPRP is 0.207; for RRIRYRPPRLPRPRPRPEWSPRP it is -0.0724.
Next, RRIRFRPPRLPRPRPRPWNQPRP: 0.0676.
In the case of RRIRSRPPRLPRPRPRPMAKPRP, the “shrunken log2 fold change” value amounted to 0.206.
As to RRIRPRPPRLPRPRPRPIALPRP, the “shrunken log2 fold change” value was -0.0697.
Next, RRIRWRPPRLPRPRPRPSDDPRP: 0.328.
